Target: T1, GRK2 (Bos taurus, UniProt P21146)
T1 construct: made in house; host or cells: Sf9 cells (baculovirus)
T1 sequence (P21146 1-689): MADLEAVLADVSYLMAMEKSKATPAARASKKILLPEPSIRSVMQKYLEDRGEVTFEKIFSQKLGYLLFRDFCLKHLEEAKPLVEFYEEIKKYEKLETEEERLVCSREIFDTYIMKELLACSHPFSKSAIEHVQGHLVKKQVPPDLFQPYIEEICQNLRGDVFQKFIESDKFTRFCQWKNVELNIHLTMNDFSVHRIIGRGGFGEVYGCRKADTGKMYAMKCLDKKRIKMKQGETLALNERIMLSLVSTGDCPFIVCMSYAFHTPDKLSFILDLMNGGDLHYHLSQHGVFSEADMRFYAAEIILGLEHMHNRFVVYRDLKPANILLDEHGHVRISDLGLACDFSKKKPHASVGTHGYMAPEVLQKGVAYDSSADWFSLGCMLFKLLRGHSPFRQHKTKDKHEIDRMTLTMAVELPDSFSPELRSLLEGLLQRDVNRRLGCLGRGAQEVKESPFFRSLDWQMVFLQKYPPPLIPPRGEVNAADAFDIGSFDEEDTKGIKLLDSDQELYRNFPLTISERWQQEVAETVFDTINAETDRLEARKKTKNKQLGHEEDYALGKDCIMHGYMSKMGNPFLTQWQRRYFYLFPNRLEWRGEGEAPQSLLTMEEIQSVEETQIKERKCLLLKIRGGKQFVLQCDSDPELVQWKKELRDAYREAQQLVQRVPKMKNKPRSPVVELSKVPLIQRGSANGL
Assay: phosphorylation of p38 mutants and truncated proteins by GRK2 in vitro
Assay type: biochemical
Settings: GST fusion proteins, 30 minutes at 30° C.
Method: FIG. 6A: Proteins fused to GST (black rectangle in the protein schemes) were purified from bacteria transformed with the plasmids pGEX2T-p38α, pGEX4T-Mxi2 and pGEX4T-Mxi2Δ17: p38α, Mxi2 and Mxi2Δ17. The […] isoforms used as C-terminal truncated mutants for trying to limit the GRK2 phosphorylation site. […] Heparin (150 nM) was included as a specific GRK2 inhibitor. The reactions were stopped by adding SDS breaking buffer. The samples were resolved in 8% SDS-PAGE. For the purpose of assuring the inclusion of identical amounts of protein, they were first visualized in the gel by Coomassie Brilliant Blue (CBB) staining. Then the gel was dried and the radioactivity incorporated to the proteins (^32P) was detected. FIG. 6B: The truncated GST-280-360p38 protein, corresponding to the last 80 p38α amino acids, was generated by means of the Invitrogen Gateway system. Phosphorylation assays were carried out with Mxi2Δ17 as a p38 N-terminal, 280-360 p38 as C-terminal and with whole p38α in the same conditions as described in section A. The phosphorylation was detected by autoradiography (^32P) and controls of the amount of protein used in the assays were carried out concomitantly by Western blot with the anti-GST antibody. The presence of the GST-280-360p38 protein, which is not phosphorylated, is clearly observed. STD, mobility of standard molecular weight proteins.
FIG. 9A: p38T123A and p38T123D proteins, fused to GST, were made by directed mutagenesis in the prokaryotic expression plasmids pGEX2T. The ability of the recombinant GST-p38T123A and GST-p38T123D proteins to be GRK2 substrates in comparison to the wild GST-p38WT protein and at the final concentrations indicated in the Figure was assayed. The upper panels represent the obtained phosphorylation (32 P) and the lower panels show, by anti-p38N WB, the amount of recombinant protein used in the assays. […]
Heparin (150 nM) was included as a specific GRK2 inhibitor. […] Subsequently, the gel was dried and the radioactivity incorporated to the proteins (^32P) was detected. […]

B1: p38T123D: p38α mutant; aspartic acid mimics the constitutively phosphorylated form of threonine 123 (protein, UniProt P47811 2-360, looked up, variant T123D)
Mitogen-activated protein …: SQERPTFYRQELNKTIWEVPERYQNLSPVGSGAYGSVCAAFDTKTGHRVAVKKLSRPFQSIIHAKRTYRELRLLKHMKHENVIGLLDVFTPARSLEEFNDVYLVTHLMGADLNNIVKCQKLDDDHVQFLIYQILRGLKYIHSADIIHRDLKPSNLAVNEDCELKILDFGLARHTDDEMTGYVATRWYRAPEIMLNWMHYNQTVDIWSVGCIMAELLTGRTLFPGTDHIDQLKLILRLVGTPGAELLKKISSESARNYIQSLAQMPKMNFANVFIGANPLAVDLLEKMLVLDSDKRITAAQALAHAYFAQYHDPDDEPVADPYDQSFESRDLLIDEWKSLTYDEVISFVPPPLDQEEMES
modifications: GST or Flag tag in some forms
  ability to be a GRK2 substrate (32P incorporation): none of the two mutant is a GRK2 substrate
